Laboratory results from US20210079056A1.

Tests used:
[1] = target: rat ANP receptor (NPR-A) (rat) (UniProt P18910); assay: cell-based or functional assay
[2] = target: rat CNP receptor (NPR-B) (rat) (UniProt P16067); assay: cell-based or functional assay
Sequence of rat CNP receptor (NPR-B) (rat) (P16067 17-1047): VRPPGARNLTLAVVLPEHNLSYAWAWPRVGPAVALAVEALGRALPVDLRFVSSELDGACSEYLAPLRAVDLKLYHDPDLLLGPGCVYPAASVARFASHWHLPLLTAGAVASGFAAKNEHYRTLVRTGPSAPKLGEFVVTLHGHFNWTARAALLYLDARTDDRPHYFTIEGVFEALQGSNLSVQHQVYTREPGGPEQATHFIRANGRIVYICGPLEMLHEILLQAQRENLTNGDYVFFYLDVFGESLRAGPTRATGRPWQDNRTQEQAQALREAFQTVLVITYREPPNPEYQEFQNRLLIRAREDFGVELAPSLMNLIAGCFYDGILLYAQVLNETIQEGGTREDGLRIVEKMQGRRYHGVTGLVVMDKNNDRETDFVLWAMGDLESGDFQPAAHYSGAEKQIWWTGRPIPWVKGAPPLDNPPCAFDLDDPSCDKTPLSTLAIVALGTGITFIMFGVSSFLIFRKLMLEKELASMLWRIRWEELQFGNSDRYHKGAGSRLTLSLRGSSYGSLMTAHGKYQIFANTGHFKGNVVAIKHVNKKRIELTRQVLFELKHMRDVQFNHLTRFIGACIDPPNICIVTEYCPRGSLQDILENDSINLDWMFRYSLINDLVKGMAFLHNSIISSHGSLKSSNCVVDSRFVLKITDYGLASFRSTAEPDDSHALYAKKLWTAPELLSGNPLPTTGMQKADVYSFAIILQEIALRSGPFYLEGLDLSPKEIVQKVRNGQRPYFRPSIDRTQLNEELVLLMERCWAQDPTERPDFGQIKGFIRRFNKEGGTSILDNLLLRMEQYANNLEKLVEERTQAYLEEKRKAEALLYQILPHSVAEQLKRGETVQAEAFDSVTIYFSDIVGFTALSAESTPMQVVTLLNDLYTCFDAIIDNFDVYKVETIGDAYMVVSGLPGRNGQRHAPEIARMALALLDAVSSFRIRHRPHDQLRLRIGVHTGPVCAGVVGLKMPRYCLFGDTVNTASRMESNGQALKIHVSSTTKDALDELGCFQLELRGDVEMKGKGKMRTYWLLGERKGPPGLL

Sequence of rat ANP receptor (NPR-A) (rat) (P18910 29-1057): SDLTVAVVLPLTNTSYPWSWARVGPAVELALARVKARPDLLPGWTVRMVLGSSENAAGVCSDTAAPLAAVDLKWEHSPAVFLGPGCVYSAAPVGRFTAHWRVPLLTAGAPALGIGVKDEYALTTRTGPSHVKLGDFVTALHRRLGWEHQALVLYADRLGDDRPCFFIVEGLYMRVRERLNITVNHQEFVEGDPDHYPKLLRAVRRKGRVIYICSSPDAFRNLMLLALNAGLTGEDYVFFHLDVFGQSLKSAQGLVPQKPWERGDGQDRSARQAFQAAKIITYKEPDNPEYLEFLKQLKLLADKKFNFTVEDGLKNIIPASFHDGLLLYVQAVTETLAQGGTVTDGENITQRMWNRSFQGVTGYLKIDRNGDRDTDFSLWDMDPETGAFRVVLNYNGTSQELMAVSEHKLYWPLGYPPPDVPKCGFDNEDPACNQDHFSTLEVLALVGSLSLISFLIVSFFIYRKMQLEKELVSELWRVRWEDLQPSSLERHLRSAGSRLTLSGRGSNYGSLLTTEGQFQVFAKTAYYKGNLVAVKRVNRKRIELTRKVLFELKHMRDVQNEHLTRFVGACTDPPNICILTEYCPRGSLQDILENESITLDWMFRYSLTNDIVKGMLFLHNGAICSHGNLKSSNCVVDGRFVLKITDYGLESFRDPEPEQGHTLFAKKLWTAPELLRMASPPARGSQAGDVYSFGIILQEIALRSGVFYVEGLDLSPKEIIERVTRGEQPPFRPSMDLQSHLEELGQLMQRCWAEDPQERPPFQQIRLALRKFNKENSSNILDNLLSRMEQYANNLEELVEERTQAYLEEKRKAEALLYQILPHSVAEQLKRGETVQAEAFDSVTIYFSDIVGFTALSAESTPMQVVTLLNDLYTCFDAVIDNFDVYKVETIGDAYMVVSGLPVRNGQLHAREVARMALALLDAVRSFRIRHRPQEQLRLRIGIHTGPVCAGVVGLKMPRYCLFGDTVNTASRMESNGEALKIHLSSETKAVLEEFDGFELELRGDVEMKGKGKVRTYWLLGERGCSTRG

EC50, luminescence of cGMP reporter cells [2]	Substance	EC50, fluorescence of cGMP reporter cells [1]
	ANP (Bachem, H-2100) (peptide)	0.22 nM
	BNP (Bachem, H-5968) (peptide)	2.9 nM
0.024 nM	CNP (Bachem, H-1296) (peptide)	
